The target in this assay is recombinant Epithelial Glycoprotein-2 (EGP-2), baculovirus-expressed, purified (human) (UniProt P16422). The experiment in a line: SPR (BIAcore), scFv over amine-coupled recombinant EGP-2.

Experimental findings from patent WO2000069914A2 are described below.

By koff is commonly meant a measure of how fast the partners let go of each other.

Chain of UniProt P16422 (P16422 24-265 limits assumed): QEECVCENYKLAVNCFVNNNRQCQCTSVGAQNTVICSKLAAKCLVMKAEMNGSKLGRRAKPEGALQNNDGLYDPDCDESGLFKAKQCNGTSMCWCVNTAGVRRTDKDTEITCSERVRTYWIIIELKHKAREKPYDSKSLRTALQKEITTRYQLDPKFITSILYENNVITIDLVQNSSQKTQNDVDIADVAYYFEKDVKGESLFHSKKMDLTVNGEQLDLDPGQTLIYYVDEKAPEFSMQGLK

For scFv MOC-31, the koff stood at 0.00034 s⁻¹.
